This is an account of results in paper PMC4018528.

The assay addresses recombinant His-tagged Sp4E-BP (Strongylocentrotus purpuratus 4E-BP) (Strongylocentrotus purpuratus). Briefly: SPR; Sp4E-BP immobilised (60 uRIU) by amine coupling on a mixed SAM chip; Flag-MmIF4E1:m7GTP injected from 4.37 uM to 53.9 nM (3-fold dilution series); 25°C; HEPES 50 mM pH 7.7, KCl 150 mM, 0.5% Igepal; flow 25 uL/min; global fit, one step 1:1 reaction (Scrubber 2.0a).

Turning to “Flag-tagged MmIF4E1 (eIF4E1 from Mus musculus), as Flag-MmIF4E1:m7GTP (from UniProt P63073 1-217) (natural protein)”, the Kd turned out to be 23 nM, the koff is 0.00022 s⁻¹ and the kon was determined as 9300 M⁻¹ s⁻¹.
